These are literature values, as cited in publication PMC9027846.

A word on the Kd: it is the equilibrium constant for the complex coming apart.

The target in the series is Plasmin (Homo sapiens) (UniProt P00747). Nature of the series: BLI.
Sequence of UniProt P00747 (P00747 581-810): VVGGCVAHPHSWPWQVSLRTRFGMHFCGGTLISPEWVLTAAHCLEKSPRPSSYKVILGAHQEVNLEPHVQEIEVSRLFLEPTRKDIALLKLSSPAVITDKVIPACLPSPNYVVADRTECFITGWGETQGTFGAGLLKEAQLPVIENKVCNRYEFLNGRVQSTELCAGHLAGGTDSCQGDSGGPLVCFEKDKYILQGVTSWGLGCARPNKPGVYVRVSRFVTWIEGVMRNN

For the substance AaTI (from UniProt Q177W0), the Kd was 62.8 nM.
